# Positions of bridges follow the written chain, without caps; N, C: chain ends. No end group written: not given here.
# T1: canine NPRA (natriuretic peptide receptor A), full length, stably expressed on HEK293 cells (canine (dog), UniProt A0A8I3MHU3 32-1060)
# T1 sequence: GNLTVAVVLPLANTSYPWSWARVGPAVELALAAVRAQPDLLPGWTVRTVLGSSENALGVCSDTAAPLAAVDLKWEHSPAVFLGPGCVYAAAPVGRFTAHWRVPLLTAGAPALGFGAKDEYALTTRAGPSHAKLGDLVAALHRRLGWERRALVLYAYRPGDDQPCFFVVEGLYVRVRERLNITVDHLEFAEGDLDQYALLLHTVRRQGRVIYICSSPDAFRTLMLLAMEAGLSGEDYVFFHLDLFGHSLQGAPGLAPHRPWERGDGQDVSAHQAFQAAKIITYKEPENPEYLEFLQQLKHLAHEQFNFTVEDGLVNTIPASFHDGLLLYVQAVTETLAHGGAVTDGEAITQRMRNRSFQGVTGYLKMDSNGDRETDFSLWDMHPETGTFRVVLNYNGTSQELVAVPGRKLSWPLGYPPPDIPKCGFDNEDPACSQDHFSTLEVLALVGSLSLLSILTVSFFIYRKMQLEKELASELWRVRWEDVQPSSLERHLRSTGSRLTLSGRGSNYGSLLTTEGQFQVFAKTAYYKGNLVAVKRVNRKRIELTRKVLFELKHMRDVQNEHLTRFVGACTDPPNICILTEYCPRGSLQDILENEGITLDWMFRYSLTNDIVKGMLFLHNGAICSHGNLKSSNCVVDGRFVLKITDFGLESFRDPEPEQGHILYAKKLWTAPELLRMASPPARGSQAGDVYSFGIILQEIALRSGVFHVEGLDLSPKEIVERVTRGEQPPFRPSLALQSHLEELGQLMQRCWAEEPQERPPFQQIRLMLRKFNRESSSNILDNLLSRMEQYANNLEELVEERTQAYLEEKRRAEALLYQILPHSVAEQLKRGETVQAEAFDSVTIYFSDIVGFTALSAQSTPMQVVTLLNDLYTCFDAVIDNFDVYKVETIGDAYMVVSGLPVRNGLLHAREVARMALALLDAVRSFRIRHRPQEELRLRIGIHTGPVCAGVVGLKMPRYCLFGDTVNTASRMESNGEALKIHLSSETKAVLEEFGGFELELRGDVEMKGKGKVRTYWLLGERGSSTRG
# Key:
# [1] = biological target: canine NPRA (natriuretic peptide receptor A), full length, stably expressed on HEK293 cells (canine (dog)); test: cell-based or functional assay
# [2] = Pharmacokinetics of ANP-caFc in conscious dogs following a single dose; type: in vivo, dog
# Procedure: (§1) Dogs were administered a single IV dose (1 mg/kg or 17 nmol/kg) or SC dose (2.5 mg/kg or 42 nmol/kg) of ANP-caFc to assess PKPD over a period of 4 to 7 days. These doses were selected because they were similar to the dose-range employed to evaluate Cardeva (recombinant human serum albumin-BNP fusion protein) in dogs. […] The sensitivity of the ELISA used to reliably detect ANP-caFc in dog plasma was limited by having a minimum detection level in dog plasma of […]. In order to avoid plasma matrix effects, a minimum dilution of 1:50 was required when assaying beagle plasma. The linear range of the assay, in PBS, is […] to approximately 100 nM. In 2% beagle plasma the linear range of the curve is 1 nM to about 80 or 90 nM. FIG. 4 only provides an estimate of the estimated plasma levels and Table 2 presents the pharmacokinetics of ANP-caFc.
# plasma cGMP = test: Plasma cGMP levels in conscious dogs after IV and SC administration (preliminary PKPD); type: in vivo, dog; settings: single SC dose 2.5 mg/kg
# Procedure: as §1
# Plasma cGMP following SC dosing appeared to be elevated above baseline ≧48 hours post-dose (FIG. 5).
# [3] = test system: conscious telemeterized beagles; test: Hemodynamic assessment in telemeterized conscious dogs (Study #1 and Study #2); type: in vivo, dog; settings: for effect on HR (figure legend) / effect on mean arterial blood pressure (figure legend): Days 1-4 post-dose
# Procedure: The criteria for dose selection was that the dose could not decrease mean arterial blood pressure more than 5-10 mmHg below baseline, and that it should increase plasma cGMP concentration approximately 1.5×-2× above baseline. […] In study #1, a total of 5 dogs were dosed subcutaneously with vehicle, or ANP-caFc at 0.5, 1 and 2.5 mg/kg based on a modified Latin square design over a 4-week period. This dose-range was chosen because it was expected to overlap the targeted plasma cGMP elevation based on the single dose dog PK study. The dosing interval was 7 days. One animal was excluded from the final data analysis due to a failure of telemetry device during the study. ANP-caFc produced a dose-dependent increase in peak plasma levels of cGMP (3.7-, 3.5- and 6.6-fold—of vehicle day value FIG. 6), a dose-dependent peak reduction in mean arterial blood pressure (MAP; −13±5, −19±4, and −20±5 mmHg vs. vehicle—FIGS. 7A and 7B), and peak heart rate was increased (+30 ±10, +29 ±9, and +25 ±9 beats per minute—FIGS. 8A and 8B).
# Since the MAP decreased more than 10 mmHg during the peak effect for all three doses, Study #2 was performed with lower doses (0.05 and 0.25 mg/kg) in the same 4 dogs using a similar study design. […] The 0.05 mg/kg dose of ANP-caFc had no effect of MAP (1.9±1.4 mmHg), HR (1.8±0.6 beats per minute), or plasma cGMP. (Urine samples were also collected for cGMP excretion measurements, however, samples were contaminated by drinking water and could not be used.)
# [4] = biological target: T1, canine NPRA (natriuretic peptide …); test: cell-based or functional assay
# [5] = biological target: T1, canine NPRA (natriuretic peptide …); test: cell-based or functional assay; remark: listed apart in the source
# [6] = single IV dose 1 mg/kg (17 nmol/kg)
# [7] = single SC dose 2.5 mg/kg (42 nmol/kg)
molecule,measurement,setting,value
"ANP28-20aa-CalgGB-Fc (recombinant canine ANP28 - (GGS)6GG linker - canine IgG-B Fc fusion protein) (Fc fusion, C-terminal Lysine residue missing in all lots produced (mass spectrometry); Fc glycosylated (G0, G1, G2)) SLRRSSCFGGRMDRIGAQSGLGCNSFRYGGSGGSGGSGGSGGSGGSGGCPKCPAPEMLGGPSVFIFPPKPKDTLLIARTPEVTCVVVDLDPEDPEVQISWFVDGKQMQTAKTQPREEQFNGTYRVVSVLPIGHQDWLKGKQFTCKVNNKALPSPIERTISKARGQAHQPSVYVLPPSREELSKNTVSLTCLIKDFFPPDIDVEWQSNGQQEPESKYRTTPPQLDEDGSYFLYSKLSVDKSRWQRGDTFICAVMHEALHNHYTQESLSHSPGK","cGMP EC50 (nM), Dog NPRA; lot 8760-110.3",[1],3 nM
same,"cGMP EC50 (nM), Dog NPRA; lot 8760-137",[1],2.5 nM
same,"cGMP EC50 (nM), Dog NPRA; lot 8760-174",[1],5.4 nM
same,"cGMP EC50 (nM), Dog NPRA; lot 9081-51",[1],8.3 nM
same,"cGMP EC50 (nM), Dog NPRA; lot 9081-53",[1],9.4 nM
"ANP-caFc: canine ANP-Fc fusion protein dosed to dogs; Fc isotype not stated, nmol/kg doses fit the IgG-B fusion (protein) SLRRSSCFGGRMDRIGAQSGLGCNSFRYGGSGGSGGSGGSGGSGGSGGCPKCPAPEMLGGPSVFIFPPKPKDTLLIARTPEVTCVVVDLDPEDPEVQISWFVDGKQMQTAKTQPREEQFNGTYRVVSVLPIGHQDWLKGKQFTCKVNNKALPSPIERTISKARGQAHQPSVYVLPPSREELSKNTVSLTCLIKDFFPPDIDVEWQSNGQQEPESKYRTTPPQLDEDGSYFLYSKLSVDKSRWQRGDTFICAVMHEALHNHYTQESLSHSPGK",AUC,[2]; [6],2.0 ± 0.46 µM·h
same,MRT,[2]; [6],12.2 ± 1.9 h
same,T½,[2]; [6],8.3 ± 2.0 h
same,Vss,[2]; [6],0.107 ± 0.013 L/kg
same,AUC,[2]; [7],6.1 ± 0.3 µM·h
same,MRT,[2]; [7],41.6 ± 1.0 h
same,T½,[2]; [7],15.4 ± 1.8 h
same,time plasma cGMP elevated above baseline post-dose,plasma cGMP,≥ 48 h
same,"increase in peak plasma levels of cGMP, of vehicle day value","[3]; Study #1, SC 0.5 mg/kg",3.7 fold
same,peak heart rate increase,"[3]; Study #1, SC 0.5 mg/kg",+30 ±10 beats per minute
same,peak reduction in mean arterial blood pressure (MAP) vs. vehicle,"[3]; Study #1, SC 0.5 mg/kg",−13±5 mmHg
same,"increase in peak plasma levels of cGMP, of vehicle day value","[3]; Study #1, SC 1 mg/kg",3.5 fold
same,peak heart rate increase,"[3]; Study #1, SC 1 mg/kg",+29 ±9 beats per minute
same,peak reduction in mean arterial blood pressure (MAP) vs. vehicle,"[3]; Study #1, SC 1 mg/kg",−19±4 mmHg
same,"increase in peak plasma levels of cGMP, of vehicle day value","[3]; Study #1, SC 2.5 mg/kg",6.6 fold
same,peak heart rate increase,"[3]; Study #1, SC 2.5 mg/kg",+25 ±9 beats per minute
same,peak reduction in mean arterial blood pressure (MAP) vs. vehicle,"[3]; Study #1, SC 2.5 mg/kg",−20±5 mmHg
same,effect on HR (figure legend),"[3]; Study #1, subcutaneous",dose-dependently increased
same,effect on mean arterial blood pressure (figure legend),"[3]; Study #1, subcutaneous",dose-dependently decreased
same,change in HR,"[3]; Study #2, SC 0.05 mg/kg",1.8±0.6 beats per minute
same,change in MAP,"[3]; Study #2, SC 0.05 mg/kg",1.9±1.4 mmHg
same,effect on plasma cGMP,"[3]; Study #2, SC 0.05 mg/kg",no effect
same,change in MAP vs. vehicle,"[3]; Study #2, SC 0.25 mg/kg",−6.6±1.6 mmHg
same,effect on plasma cGMP,"[3]; Study #2, SC 0.25 mg/kg",moderate increase
same,increase in heart rate,"[3]; Study #2, SC 0.25 mg/kg",20±9 beats per minute
same,effect on HR (figure legend),"[3]; Study #2, subcutaneous",dose-dependently increased
same,effect on mean arterial blood pressure (figure legend),"[3]; Study #2, subcutaneous",dose-dependently decreased
SLRRSSCFGGRMDRIGAQSGLGCNSFRY (disulfide 7-23 (inferred)) [canine ANP28],EC50 in the canine NPRA cGMP assay,[4],~1 nM
same,"cGMP EC50 (nM), cGMP induction on canine NPRA cells",[5],0.2 nM
